Molecular target: BRCA2 protein, endogenous in cell extracts (human) (UniProt P51587)
Assay: estimate from co-immunoprecipitation with anti-BRCA2 antibodies

UniProt P51587, sequence (P51587 whole entry): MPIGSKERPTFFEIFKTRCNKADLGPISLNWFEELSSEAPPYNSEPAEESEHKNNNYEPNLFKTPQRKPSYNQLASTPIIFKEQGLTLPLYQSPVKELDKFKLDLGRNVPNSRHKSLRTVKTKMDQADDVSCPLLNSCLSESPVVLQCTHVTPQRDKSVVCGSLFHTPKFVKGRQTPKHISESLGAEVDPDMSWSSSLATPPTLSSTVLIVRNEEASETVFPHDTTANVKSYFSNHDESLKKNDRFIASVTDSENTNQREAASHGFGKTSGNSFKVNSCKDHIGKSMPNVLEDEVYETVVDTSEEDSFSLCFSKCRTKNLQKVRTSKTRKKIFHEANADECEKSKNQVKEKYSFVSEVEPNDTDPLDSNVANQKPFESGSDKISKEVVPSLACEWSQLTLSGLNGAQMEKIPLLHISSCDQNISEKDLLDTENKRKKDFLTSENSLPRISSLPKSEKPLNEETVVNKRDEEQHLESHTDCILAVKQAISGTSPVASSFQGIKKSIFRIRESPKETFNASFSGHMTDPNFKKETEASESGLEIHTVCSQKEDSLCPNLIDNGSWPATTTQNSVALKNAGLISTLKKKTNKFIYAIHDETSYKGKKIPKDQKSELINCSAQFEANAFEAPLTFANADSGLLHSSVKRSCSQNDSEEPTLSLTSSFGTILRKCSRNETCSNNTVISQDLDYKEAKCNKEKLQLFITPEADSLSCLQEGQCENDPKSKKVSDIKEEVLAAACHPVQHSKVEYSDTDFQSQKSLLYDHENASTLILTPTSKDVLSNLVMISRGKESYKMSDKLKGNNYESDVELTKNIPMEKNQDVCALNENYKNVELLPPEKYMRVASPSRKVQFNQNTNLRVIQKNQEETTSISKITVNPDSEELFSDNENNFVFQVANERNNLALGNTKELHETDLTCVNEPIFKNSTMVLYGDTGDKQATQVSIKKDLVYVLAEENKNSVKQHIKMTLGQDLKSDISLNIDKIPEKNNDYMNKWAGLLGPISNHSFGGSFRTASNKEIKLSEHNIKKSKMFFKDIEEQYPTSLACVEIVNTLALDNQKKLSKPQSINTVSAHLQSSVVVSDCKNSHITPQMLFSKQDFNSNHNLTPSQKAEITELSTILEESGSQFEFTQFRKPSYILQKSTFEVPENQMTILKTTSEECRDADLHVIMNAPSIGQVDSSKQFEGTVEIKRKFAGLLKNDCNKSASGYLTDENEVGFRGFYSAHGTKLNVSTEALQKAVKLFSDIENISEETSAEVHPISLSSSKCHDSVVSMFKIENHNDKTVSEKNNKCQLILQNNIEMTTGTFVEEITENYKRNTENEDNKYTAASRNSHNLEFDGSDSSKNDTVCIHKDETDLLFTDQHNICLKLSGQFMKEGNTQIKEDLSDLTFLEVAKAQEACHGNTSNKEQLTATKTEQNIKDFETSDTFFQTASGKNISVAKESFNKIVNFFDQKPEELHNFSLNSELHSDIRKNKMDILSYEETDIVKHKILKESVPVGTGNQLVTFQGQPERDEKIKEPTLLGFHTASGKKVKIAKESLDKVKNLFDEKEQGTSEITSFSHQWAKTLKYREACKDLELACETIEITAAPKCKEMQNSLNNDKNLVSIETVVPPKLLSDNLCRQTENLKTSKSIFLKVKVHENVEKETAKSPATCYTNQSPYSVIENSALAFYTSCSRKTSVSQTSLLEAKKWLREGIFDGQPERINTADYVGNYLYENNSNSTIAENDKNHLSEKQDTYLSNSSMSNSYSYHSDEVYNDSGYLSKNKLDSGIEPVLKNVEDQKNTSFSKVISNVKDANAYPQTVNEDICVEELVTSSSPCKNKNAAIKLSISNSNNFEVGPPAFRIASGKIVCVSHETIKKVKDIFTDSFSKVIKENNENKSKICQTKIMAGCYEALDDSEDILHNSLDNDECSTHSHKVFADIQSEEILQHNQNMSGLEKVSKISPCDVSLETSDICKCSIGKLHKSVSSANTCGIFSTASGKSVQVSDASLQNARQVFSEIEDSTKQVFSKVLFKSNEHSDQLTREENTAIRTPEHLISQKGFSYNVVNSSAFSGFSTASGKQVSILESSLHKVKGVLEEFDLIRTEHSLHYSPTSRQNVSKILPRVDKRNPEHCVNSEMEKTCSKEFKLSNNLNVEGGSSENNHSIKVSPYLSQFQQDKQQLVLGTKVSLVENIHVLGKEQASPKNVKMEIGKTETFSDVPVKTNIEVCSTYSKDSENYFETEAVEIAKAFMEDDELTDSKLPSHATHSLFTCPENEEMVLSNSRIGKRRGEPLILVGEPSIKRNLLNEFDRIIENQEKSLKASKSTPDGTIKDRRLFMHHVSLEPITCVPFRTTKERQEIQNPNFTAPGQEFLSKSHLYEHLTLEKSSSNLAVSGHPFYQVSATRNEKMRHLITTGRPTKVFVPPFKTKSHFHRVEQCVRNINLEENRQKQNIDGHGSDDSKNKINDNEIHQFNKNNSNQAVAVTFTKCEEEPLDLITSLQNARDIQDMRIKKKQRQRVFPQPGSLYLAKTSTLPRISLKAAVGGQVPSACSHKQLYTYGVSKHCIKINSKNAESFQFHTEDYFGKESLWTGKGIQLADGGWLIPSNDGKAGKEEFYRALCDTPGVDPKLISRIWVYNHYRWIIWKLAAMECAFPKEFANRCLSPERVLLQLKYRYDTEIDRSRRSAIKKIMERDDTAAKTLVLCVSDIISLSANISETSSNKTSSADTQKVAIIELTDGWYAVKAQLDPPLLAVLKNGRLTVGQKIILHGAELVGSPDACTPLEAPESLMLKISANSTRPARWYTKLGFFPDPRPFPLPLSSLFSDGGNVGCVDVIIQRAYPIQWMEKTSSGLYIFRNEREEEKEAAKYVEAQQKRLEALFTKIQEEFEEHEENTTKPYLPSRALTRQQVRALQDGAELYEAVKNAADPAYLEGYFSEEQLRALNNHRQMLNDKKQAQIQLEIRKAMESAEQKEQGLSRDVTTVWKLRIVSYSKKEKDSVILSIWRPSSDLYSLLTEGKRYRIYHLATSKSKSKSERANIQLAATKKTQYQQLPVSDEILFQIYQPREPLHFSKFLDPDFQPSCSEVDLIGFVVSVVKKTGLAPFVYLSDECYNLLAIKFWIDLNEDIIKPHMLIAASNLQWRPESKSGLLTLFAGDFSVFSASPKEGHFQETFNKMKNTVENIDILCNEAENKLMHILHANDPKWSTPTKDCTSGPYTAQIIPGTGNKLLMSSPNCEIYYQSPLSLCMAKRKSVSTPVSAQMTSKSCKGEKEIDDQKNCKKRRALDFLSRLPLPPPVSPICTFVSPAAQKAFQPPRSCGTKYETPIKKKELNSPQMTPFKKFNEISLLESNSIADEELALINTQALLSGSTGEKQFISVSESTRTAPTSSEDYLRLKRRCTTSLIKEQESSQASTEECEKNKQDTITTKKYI

- percent of endogenous BRAF35 present in the BRCA2 complex: 2 to 4%
Substance: BRAF35, endogenous protein in HeLa or MCF7 cell extracts
